From US20230242640A1 (published 2023) come the findings set out here.

The target in test [1] is T1, recombinant hSIRPg-His (Sino Biologicals reference 11828-H08H) (human, UniProt Q9P1W8 29-360).
T1 chain: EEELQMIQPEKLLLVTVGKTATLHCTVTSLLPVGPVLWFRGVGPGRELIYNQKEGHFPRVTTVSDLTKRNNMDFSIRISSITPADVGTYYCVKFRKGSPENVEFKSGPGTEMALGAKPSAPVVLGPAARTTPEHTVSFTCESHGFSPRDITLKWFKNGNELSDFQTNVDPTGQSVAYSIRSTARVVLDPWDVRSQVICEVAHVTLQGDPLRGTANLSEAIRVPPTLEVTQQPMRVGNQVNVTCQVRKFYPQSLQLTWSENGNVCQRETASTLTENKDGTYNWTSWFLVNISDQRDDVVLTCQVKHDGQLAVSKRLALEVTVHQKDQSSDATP
As to the kind of experiment: competition ELISA with CD47-Fc. Background: ELISA stands for enzyme-linked immunosorbent assay.

For test [2], the target named is T2, peptide human SIRPgamma VKFRKGSPENVEFKSGPGTEMALGAKPSA-6His.
T2 peptide: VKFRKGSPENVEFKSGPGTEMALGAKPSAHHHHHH
As to the kind of experiment: ELISA.

B1: anti-SIRPg antibody A5 (antibody, V domains shown)
VH: EVQLVESGGGVVRPGGSLRLSCAASGFTFDDYGMSWVRQAPGKGLEWVSGINWNGGSTGYADSVKGRFTISRDNAKNSLYLQMNSLRAEDTAVYYCARQMVKLWGQGTLVTVSR
VL: SSELTQDPAVSVALGQTVRITCQGDSLRSYYASWYQQKPGQAPVLVIYGKNNRPSGIPDRFSGSSSGNTASLTITGAQAEDEADYYCNSRDSSGNHVVFGGGTKLTVLR
For B1, the IC50 in test [1] came out at 0.045 µg/mL. In addition, in test [2], a half-maximal response (EC50) required 0.069 µg/mL.

B2: anti-SIRPg antibody A8 (antibody, V domains shown)
VH: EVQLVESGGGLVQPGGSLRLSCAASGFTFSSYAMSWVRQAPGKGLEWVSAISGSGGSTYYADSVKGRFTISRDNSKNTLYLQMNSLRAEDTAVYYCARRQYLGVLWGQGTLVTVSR
VL: SSELTQDPAVSVALGQTVRITCQGDSLRSYYASWYQQKPGQAPVLVIYGKNNRPSGIPDRFSGSSSGNTASLTITGAQAEDEADYYCNSRDSSGNHVVFGGGTKLTVLR
Regarding B2, in test [1], the IC50 came to 0.31 µg/mL. For the same molecule, the midpoint of the response in test [2], the EC50, lay at 0.0258 µg/mL.

B3: anti-SIRPg antibody A1 (antibody, V domains shown)
VH: EVQLVESGGGVVRPGGSLRLSCAASGFTFDDYGMSWVRQAPGKGLEWVSGINWNGGSTGYADSVKGRFTISRDNAKNSLYLQMNSLRAEDTAVYYCARWIAKVWGQGTLVTVSR
VL: SSELTQDPAVSVALGQTVRITCQGDSLRSYYASWYQQKPGQAPVLVIYGKNNRPSGIPDRFSGSSSGNTASLTITGAQAEDEADYYCNSRDSSGNHVVFGGGTKLTVLR
Consider B3, for which the IC50 in test [1] was 0.19 µg/mL. Besides, in test [2], the EC50 was found to be 0.0505 µg/mL.

The IC50 is the point on the concentration scale where inhibition reaches its midpoint. One may read the EC50 as the midpoint of the concentration-response curve. Higher therefore signals lower potency in that assay.
